This assay addresses GST-tchvs10a1 fusion protein (plasmid pGEX-4T-2-S10A1) (human). Briefly: BIAcore (SPR); GST-tchvs10a1 captured on anti-GST antibody as ligand, GST-SR-BI at 200 nM as analyte.

“GST-SR-BI cytoplasmic domain fusion protein (plasmid pGEX-4T-1-7-5j) (from UniProt Q8WTV0)”: the response (RU) was found to be 220 RU.

Values taken from patent US6008014.
